In paper PMC11602657, “Nap1 and Kap114 co-chaperone H2A-H2B and facilitate targeted histone release in the nucleus” (The Journal of Cell Biology, 2024):
One block for each molecule: values may come before it.

B2: Nap1 core (residues 75–365) (domain or fragment, S. cerevisiae, UniProt P25293 75-365, looked up)
chain: GSLVGQDSGYVGGLPKNVKEKLLSLKTLQSELFEVEKEFQVEMFELENKFLQKYKPIWEQRSRIISGQEQPKPEQIAKGQEIVESLNETELLVDEEEKAQNDSEEEQVKGIPSFWLTALENLPIVCDTITDRDAEVLEYLQDIGLEYLTDGRPGFKLLFRFDSSANPFFTNDILCKTYFYQKELGYSGDFIYDHAEGCEISWKDNAHNVTVDLEMRKQRNKTTKQVRTIEKITPIESFFNFFDPPKIQNEDQDEELEEDLEERLALDYSIGEQLKDKLIPRAVDWFTGAAL
notes: Nap1 (nucleosome assembly protein 1), S. cerevisiae, core, residues 75–365; pET15b vector, gift from Karolin Luger; The His tag is said to be removed only for pull-down assays; also called His-Nap1 core; Nap1 core dimer; source: E. coli, purified (nickel-NTA, ion exchange, SEC)
B3: Kap114 (receptor, S. cerevisiae)
chain: MDINELIIGAQSADKHTREVAETQLLQWCDSDASQVFKALANVALQHEASLESRQFALLSLRKLITMYWSPGFESYRSTSNVEIDVKDFIREVLLKLCLNDNENTKIKNGASYCIVQISAVDFPDQWPQLLTVIYDAISHQHSLNAMSLLNEIYDDVVSEEMFFEGGIGLATMEIVFKVLNTETSTLIAKIAALKLLKACLLQMSSHNEYDEASRKSFVSQCLATSLQILGQLLTLNFGNVDVISQLKFKSIIYENLVFIKNDFSRKHFSSELQKQFKIMAIQDLENVTHINANVETTESEPLLETVHDCSIYIVEFLTSVCTLQFSVEEMNKIITSLTILCQLSSETREIWTSDFNTFVSKETGLAASYNVRDQANEFFTSLPNPQLSLIFKVVSNDIEHSTCNYSTLESLLYLLQCILLNDDEITGENIDQSLQILIKTLENILVSQEIPELILARAILTIPRVLDKFIDALPDIKPLTSAFLAKSLNLALKSDKELIKSATLIAFTYYCYFAELDSVLGPEVCSETQEKVIRIINQVSSDAEEDTNGALMEVLSQVISYNPKEPHSRKEILQAEFHLVFTISSEDPANVQVVVQSQECLEKLLDNINMDNYKNYIELCLPSFINVLDSNNANNYRYSPLLSLVLEFITVFLKKKPNDGFLPDEINQYLFEPLAKVLAFSTEDETLQLATEAFSYLIFNTDTRAMEPRLMDIMKVLERLLSLEVSDSAAMNVGPLVVAIFTRFSKEIQPLIGRILEAVVVRLIKTQNISTEQNLLSVLCFLTCNDPKQTVDFLSSFQIDNTDALTLVMRKWIEAFEVIRGEKRIKENIVALSNLFFLNDKRLQKVVVNGNLIPYEGDLIITRSMAKKMPDRYVQVPLYTKIIKLFVSELSFQSKQPNPEQLITSDIKQEVVNANKDDDNDDWEDVDDVLDYDKLKEYIDDDVDEEADDDSDDITGLMDVKESVVQLLVRFFKEVASKDVSGFHCIYETLSDSERKVLSEALL
notes: also called Sc Kap114; source: E. coli, expressed as GST-Kap114, purified (Glutathione Sepharose 4B, on-column TEV cleavage, SEC)

Legend:
[1] = target: B3; experiment: SEC-MALS; equimolar mixture of Kap114, Nap1_(2), H2A-H2B and Ran^GTP; Assay buffer without glycerol; Nap1 counted as dimer
[2] = target: Nap1 FL (C200A, C249A, C272A) (S. cerevisiae) (UniProt P25293); experiment: as above
[3] = target: B3; experiment: SEC-MALS; 1:1:1 mixture of Kap114, Nap1_(2) and H2A-H2B (80 µM each), no Ran^GTP; Assay buffer without glycerol; Nap1 counted as dimer
[4] = target: Nap1 FL (C200A, C249A, C272A) (S. cerevisiae) (UniProt P25293); experiment: as above
[5] = target: TBP (Saccharomyces cerevisiae) (UniProt P13393); conditions: cited from earlier work
[6] = target: T1, MBP-Kap114 (S. cerevisiae, UniProt P53067 1-1004); experiment: pull-down; MBP-Kap114 (WT or mutant; or MBP alone) 1 µM immobilized on amylose resin, equimolar Nap1_(2) ± H2A-H2B (1 or 2 µM) ± Ran^GTP; Assay Buffer (20 mM HEPES pH 7.4, 150 mM NaCl, 2 mM MgCl2, 10% glycerol, 2 mM DTT), 30 min at 4°C; Coomassie-stained SDS-PAGE; conditions: both partners purified
T1 construct: TEV site between MBP and Kap114; pMalE modified with a His6-tag immediately N-terminal of MBP and a TEV site after MBP; held on amylose resin in the pull-downs; also called immobilized MBP-Kap114; iK; source: E. coli BL21 Gold, purified (amylose beads, HiTrap Q, SEC); not shown: MBP, N-terminal, kept
T1 sequence: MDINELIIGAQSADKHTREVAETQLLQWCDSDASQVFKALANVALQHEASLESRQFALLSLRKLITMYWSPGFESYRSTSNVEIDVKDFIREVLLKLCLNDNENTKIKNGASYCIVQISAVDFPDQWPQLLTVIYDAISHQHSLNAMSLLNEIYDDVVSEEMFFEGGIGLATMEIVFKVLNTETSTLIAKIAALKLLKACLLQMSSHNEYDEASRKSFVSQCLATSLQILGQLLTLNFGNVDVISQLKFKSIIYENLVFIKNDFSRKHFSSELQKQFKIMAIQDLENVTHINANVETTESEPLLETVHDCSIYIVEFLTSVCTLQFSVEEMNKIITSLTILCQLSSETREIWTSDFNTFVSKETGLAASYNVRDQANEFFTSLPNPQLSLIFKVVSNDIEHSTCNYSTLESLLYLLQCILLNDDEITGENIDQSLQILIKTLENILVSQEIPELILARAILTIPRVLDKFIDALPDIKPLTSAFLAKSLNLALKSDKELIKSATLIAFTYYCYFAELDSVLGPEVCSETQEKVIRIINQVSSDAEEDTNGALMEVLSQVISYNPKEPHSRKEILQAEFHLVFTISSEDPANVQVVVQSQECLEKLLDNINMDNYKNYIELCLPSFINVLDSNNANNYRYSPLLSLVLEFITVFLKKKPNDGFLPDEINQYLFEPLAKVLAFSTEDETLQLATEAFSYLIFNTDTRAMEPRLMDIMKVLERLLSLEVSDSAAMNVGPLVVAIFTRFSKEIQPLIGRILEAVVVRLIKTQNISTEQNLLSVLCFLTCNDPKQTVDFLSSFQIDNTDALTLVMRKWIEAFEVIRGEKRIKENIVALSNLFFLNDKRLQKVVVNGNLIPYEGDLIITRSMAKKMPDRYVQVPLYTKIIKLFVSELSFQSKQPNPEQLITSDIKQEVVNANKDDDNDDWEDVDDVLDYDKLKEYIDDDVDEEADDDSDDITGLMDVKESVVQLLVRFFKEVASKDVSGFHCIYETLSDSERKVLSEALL

[7] = target: B3; experiment: AUC; sedimentation velocity c(s) of Kap114, Nap1_(2) core and Ran^GTP alone and in mixtures at indicated molar ratios; 20 mM Tris-HCl pH 7.5, 150 mM NaCl, 2 mM MgCl2, 2 mM TCEP; conditions: both partners purified
[8] = target: the molecule itself; experiment: cryo-EM structure; Nap1 core dimer:H2A-H2B 1:2, then 1 molar ratio Kap114, 0.05% glutaraldehyde 1 min, SEC; no Ran^GTP; gave Nap1_(2), Kap114•H2A-H2B and two ternary assemblies
[9] = target: T2, Nap1 core (residues 75–365) (S. cerevisiae, UniProt P25293 75-365); experiment: AUC
T2 chain: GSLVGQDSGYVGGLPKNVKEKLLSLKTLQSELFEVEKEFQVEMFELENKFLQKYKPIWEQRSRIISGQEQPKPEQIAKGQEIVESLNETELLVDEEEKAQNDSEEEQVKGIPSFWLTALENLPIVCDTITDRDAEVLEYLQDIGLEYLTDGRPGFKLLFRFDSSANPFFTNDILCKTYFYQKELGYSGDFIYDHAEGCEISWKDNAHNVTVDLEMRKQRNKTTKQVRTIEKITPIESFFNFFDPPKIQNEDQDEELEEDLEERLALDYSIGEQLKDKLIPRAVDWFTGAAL

[10] = target: B2; experiment: AUC; sedimentation velocity; Kap114 titrated into the Nap1 core dimer; isotherm with one-site model; 20 mM Tris-HCl pH 7.5, 150 mM NaCl, 2 mM MgCl2, 2 mM TCEP; conditions: both partners purified

Sequence of TBP (Saccharomyces cerevisiae) (P13393 2-240): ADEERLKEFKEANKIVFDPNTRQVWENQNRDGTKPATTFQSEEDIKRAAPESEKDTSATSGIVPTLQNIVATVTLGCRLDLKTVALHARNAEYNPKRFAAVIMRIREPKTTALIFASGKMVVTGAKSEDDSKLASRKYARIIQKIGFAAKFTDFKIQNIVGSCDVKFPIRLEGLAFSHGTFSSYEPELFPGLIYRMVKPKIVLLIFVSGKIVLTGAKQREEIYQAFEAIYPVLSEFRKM

Molecule: Kap114 (from UniProt P53067)
Kd [5]: < 1 nM

Molecule: B2
binding result [7]: binds
binding result [8]: binds

Molecule: B3
Kd [9]: 1040 nM
stoichiometry N [10]: 1

The remaining lines, values ahead:

stoichiometry N [1]: 1
stoichiometry N [2]: 1
stoichiometry N [3]: 1
stoichiometry N [4]: 1
Molecule: Sc H2A-H2B (from UniProt P04911 2-124; P02293 5-131) (complex)

binding result [6]: binds
B1: Nap1 core (residues 75–365), His tag removed (domain or fragment, S. cerevisiae, UniProt P25293 75-365, looked up)
chain: GSLVGQDSGYVGGLPKNVKEKLLSLKTLQSELFEVEKEFQVEMFELENKFLQKYKPIWEQRSRIISGQEQPKPEQIAKGQEIVESLNETELLVDEEEKAQNDSEEEQVKGIPSFWLTALENLPIVCDTITDRDAEVLEYLQDIGLEYLTDGRPGFKLLFRFDSSANPFFTNDILCKTYFYQKELGYSGDFIYDHAEGCEISWKDNAHNVTVDLEMRKQRNKTTKQVRTIEKITPIESFFNFFDPPKIQNEDQDEELEEDLEERLALDYSIGEQLKDKLIPRAVDWFTGAAL
notes: Nap1 (nucleosome assembly protein 1), S. cerevisiae, core, residues 75–365; also called Nap1_(2) core; source: E. coli, purified (nickel-NTA, ion exchange, thrombin cleavage, SEC)

binding result [6]: binds
B4: Nap1 α5/6mut (E194A/D201A/D205A) (natural protein, S. cerevisiae, UniProt P25293 1-417, looked up)
chain: MSDPIRTKPKSSMQIDNAPTPHNTPASVLNPSYLKNGNPVRAQAQEQDDKIGTINEEDILANQPLLLQSIQDRLGSLVGQDSGYVGGLPKNVKEKLLSLKTLQSELFEVEKEFQVEMFELENKFLQKYKPIWEQRSRIISGQEQPKPEQIAKGQEIVESLNETELLVDEEEKAQNDSEEEQVKGIPSFWLTALANLPIVAATITARDAEVLEYLQDIGLEYLTDGRPGFKLLFRFDSSANPFFTNDILAKTYFYQKELGYSGDFIYDHAEGAEISWKDNAHNVTVDLEMRKQRNKTTKQVRTIEKITPIESFFNFFDPPKIQNEDQDEELEEDLEERLALDYSIGEQLKDKLIPRAVDWFTGAALEFEFEEDEEEADEDEDEEEDDDHGLEDDDGESAEEQDDFAGRPEQAPECKQS
notes: also called mutant α5/6mut; source: E. coli BL21 gold, purified (Ni-NTA, TEV cleavage, HiTrap Q, Superdex S200)
